These results are taken from US20030134799A1.

A value given as a limit tells only on which side of the number the result lay.

For this experiment, the target named is NMDA receptor of well-washed rat forebrain membranes (rat) (UniProt Q9R1M7). The experiment can be described thus: cell-based or functional assay.
Sequence of NMDA receptor of well-washed rat forebrain membranes (rat) (Q9R1M7 24-1135): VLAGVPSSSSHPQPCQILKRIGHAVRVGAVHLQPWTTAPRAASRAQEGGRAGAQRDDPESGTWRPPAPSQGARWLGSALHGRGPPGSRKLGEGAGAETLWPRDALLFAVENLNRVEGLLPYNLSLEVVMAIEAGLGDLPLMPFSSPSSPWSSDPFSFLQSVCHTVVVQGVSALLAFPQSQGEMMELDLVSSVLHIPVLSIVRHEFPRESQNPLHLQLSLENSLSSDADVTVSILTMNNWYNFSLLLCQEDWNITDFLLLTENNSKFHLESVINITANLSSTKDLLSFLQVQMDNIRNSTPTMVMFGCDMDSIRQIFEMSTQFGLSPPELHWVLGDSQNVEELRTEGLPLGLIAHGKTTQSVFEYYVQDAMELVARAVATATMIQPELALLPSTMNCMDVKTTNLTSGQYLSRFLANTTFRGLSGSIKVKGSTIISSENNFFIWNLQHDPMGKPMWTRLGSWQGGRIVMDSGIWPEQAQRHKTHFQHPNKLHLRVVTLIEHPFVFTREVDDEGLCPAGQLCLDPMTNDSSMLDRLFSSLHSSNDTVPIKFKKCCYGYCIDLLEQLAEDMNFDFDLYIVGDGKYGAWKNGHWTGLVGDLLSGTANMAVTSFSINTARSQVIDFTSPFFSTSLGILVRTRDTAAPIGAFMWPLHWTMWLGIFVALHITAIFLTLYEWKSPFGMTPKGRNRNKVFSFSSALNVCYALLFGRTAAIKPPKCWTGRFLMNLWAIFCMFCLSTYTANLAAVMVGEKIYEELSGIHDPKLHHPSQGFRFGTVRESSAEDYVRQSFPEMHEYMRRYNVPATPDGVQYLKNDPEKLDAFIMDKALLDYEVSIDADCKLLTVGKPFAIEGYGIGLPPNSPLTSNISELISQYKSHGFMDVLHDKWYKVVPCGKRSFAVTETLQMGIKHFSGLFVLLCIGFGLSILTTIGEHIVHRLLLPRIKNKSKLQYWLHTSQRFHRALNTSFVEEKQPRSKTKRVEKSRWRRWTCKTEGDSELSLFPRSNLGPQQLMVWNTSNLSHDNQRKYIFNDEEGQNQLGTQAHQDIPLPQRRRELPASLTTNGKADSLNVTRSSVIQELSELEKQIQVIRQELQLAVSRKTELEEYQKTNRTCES
Regarding Ac-Con-G (peptide), the % Inh, spermine-enhanced [3H]MK-801 binding worked out at 0% and the % Sti, [3H]MK-801 binding without spermine came out at 0%.

With Ac-Tyr^o-Con-G (peptide), the % Inh, spermine-enhanced [3H]MK-801 binding was found to be 73%; the % Sti, [3H]MK-801 binding without spermine stood at 0%; the IC (µM), inhibition of spermine-enhanced [3H]MK-801 binding was found to be 18.3 µM.

For the substance Ala3-Con-G (peptide), the % Inh, spermine-enhanced [3H]MK-801 binding came out at 34%; the % Sti, [3H]MK-801 binding without spermine came out at 0%; the IC (µM), inhibition of spermine-enhanced [3H]MK-801 binding was 1.8 µM.

As for Ala4-Con-G (peptide), the % Inh, spermine-enhanced [3H]MK-801 binding stood at 0% and the % Sti, [3H]MK-801 binding without spermine is 0%.

As for Ala7,10,14-Con-G (peptide), the % Inh, spermine-enhanced [3H]MK-801 binding was 100%; the % Sti, [3H]MK-801 binding without spermine turned out to be 0%; the IC (µM), inhibition of spermine-enhanced [3H]MK-801 binding is 0.5 µM.

With Ala10-Con-G (peptide), the % Inh, spermine-enhanced [3H]MK-801 binding is 100%; the % Sti, [3H]MK-801 binding without spermine amounted to 0%; the IC (µM), inhibition of spermine-enhanced [3H]MK-801 binding amounted to 1.1 µM.

Regarding Ala14-Con-G (peptide), the % Inh, spermine-enhanced [3H]MK-801 binding is 100%; the % Sti, [3H]MK-801 binding without spermine came to 0%; the IC (µM), inhibition of spermine-enhanced [3H]MK-801 binding stood at 0.16 µM.

In the case of Asn(GlcNAc)^o-Con-G (peptide), the % Inh, spermine-enhanced [3H]MK-801 binding amounted to 38%; the % Sti, [3H]MK-801 binding without spermine amounted to 0%; the IC (µM), inhibition of spermine-enhanced [3H]MK-801 binding came out at 8.8 µM.

With Asn^o-Con-G (peptide), the % Inh, spermine-enhanced [3H]MK-801 binding stood at 83%; the % Sti, [3H]MK-801 binding without spermine is 0%; the IC (µM), inhibition of spermine-enhanced [3H]MK-801 binding was determined as 8.7 µM.

Con-G(1-5) (peptide): the % Inh, spermine-enhanced [3H]MK-801 binding was determined as 50%; the % Sti, [3H]MK-801 binding without spermine was found to be 0%; the IC (µM), inhibition of spermine-enhanced [3H]MK-801 binding was 7.43 µM.

Turning to Con-G(12-15) (peptide), the % Inh, spermine-enhanced [3H]MK-801 binding is 0%; the % Sti, [3H]MK-801 binding without spermine was found to be 20%; the EC (µM), stimulation of [3H]MK-801 binding without spermine stood at 69.8 µM.

Con-G(12-17) (peptide): the % Inh, spermine-enhanced [3H]MK-801 binding is 0%; the % Sti, [3H]MK-801 binding without spermine is 20%; the EC (µM), stimulation of [3H]MK-801 binding without spermine was 58 µM.

Turning to Con-G(14-17) (peptide), the % Inh, spermine-enhanced [3H]MK-801 binding is 0%; the % Sti, [3H]MK-801 binding without spermine came out at 61%; the EC (µM), stimulation of [3H]MK-801 binding without spermine was 1.3 µM.

For the substance Con-G(15-17) (peptide), the % Inh, spermine-enhanced [3H]MK-801 binding amounted to 0%; the % Sti, [3H]MK-801 binding without spermine was 20%; the EC (µM), stimulation of [3H]MK-801 binding without spermine amounted to 61.7 µM.

Consider Con-G-OH (peptide), for which the % Inh, spermine-enhanced [3H]MK-801 binding is 0% and the % Sti, [3H]MK-801 binding without spermine came out at 0%.

Regarding ConG(1-5)(14-17) (peptide), the % Inh, spermine-enhanced [3H]MK-801 binding turned out to be 15%; the % Sti, [3H]MK-801 binding without spermine was 0%; the IC (µM), inhibition of spermine-enhanced [3H]MK-801 binding was 100 µM.

On to ConG(1-5)AA(14-17) (peptide), for which the % Sti, [3H]MK-801 binding without spermine worked out at 0%.

In turn, ConG(1-5)AAAA(14-17) (peptide) returned a % Sti, [3H]MK-801 binding without spermine of 0%.

Substance ConG(1-5)GG(14-17) (peptide) came in with a % Sti, [3H]MK-801 binding without spermine of 0%.

In the case of ConG(1-5)GGGG(14-17) (peptide), the % Sti, [3H]MK-801 binding without spermine was found to be 0%.

ConG(1-6)A5(14-17) (peptide) gave a % Sti, [3H]MK-801 binding without spermine of 0%.

Substance ConG(1-6)A7(14-17) (peptide) displayed a % Sti, [3H]MK-801 binding without spermine of 0%.

D-Glu3,4,7,10,14-Con-G (peptide): the % Inh, spermine-enhanced [3H]MK-801 binding came out at 0%; the % Sti, [3H]MK-801 binding without spermine was determined as 30%; the EC (µM), stimulation of [3H]MK-801 binding without spermine amounted to 5.8 µM.

As for Glu3,4,7,10,14-Con-G (peptide), the % Inh, spermine-enhanced [3H]MK-801 binding came out at 22%; the % Sti, [3H]MK-801 binding without spermine turned out to be 79%; the EC (µM), stimulation of [3H]MK-801 binding without spermine is 6.7 µM; the IC (µM), inhibition of spermine-enhanced [3H]MK-801 binding was determined as 8.5 µM.

For the substance Glu4-Con-G (peptide), the % Inh, spermine-enhanced [3H]MK-801 binding came out at 0% and the % Sti, [3H]MK-801 binding without spermine was found to be 0%.

Consider Glu7,10,14-Con-G (peptide), for which the % Inh, spermine-enhanced [3H]MK-801 binding worked out at 70%; the % Sti, [3H]MK-801 binding without spermine is 0%; the IC (µM), inhibition of spermine-enhanced [3H]MK-801 binding was greater than 5 µM.

For Glu10,14-Con-G(9-17) (peptide), the % Inh, spermine-enhanced [3H]MK-801 binding amounted to 0% and the % Sti, [3H]MK-801 binding without spermine came to 0%.

Take Glu14-Con-G(12-17) (peptide): the % Inh, spermine-enhanced [3H]MK-801 binding was 0%; the % Sti, [3H]MK-801 binding without spermine was determined as 30%; the EC (µM), stimulation of [3H]MK-801 binding without spermine was 47 µM.

Turning to Glu 3,4,7,10,14-Con-G(2-17) (peptide), the % Inh, spermine-enhanced [3H]MK-801 binding is 70%; the % Sti, [3H]MK-801 binding without spermine was 33%; the EC (µM), stimulation of [3H]MK-801 binding without spermine is 0.9 µM; the IC (µM), inhibition of spermine-enhanced [3H]MK-801 binding stood at 5.4 µM.

On to Glu 7,10,14-Con-G(6-17) (peptide), for which the % Inh, spermine-enhanced [3H]MK-801 binding is 0% and the % Sti, [3H]MK-801 binding without spermine was found to be 0%.

For the substance Phe(pCl)^o-Con-G (peptide), the % Inh, spermine-enhanced [3H]MK-801 binding came out at 0% and the % Sti, [3H]MK-801 binding without spermine turned out to be 0%.

Consider Phe^o-Con-G (peptide), for which the % Inh, spermine-enhanced [3H]MK-801 binding was found to be 51%; the % Sti, [3H]MK-801 binding without spermine was 53%; the EC (µM), stimulation of [3H]MK-801 binding without spermine is 6.8 µM; the IC (µM), inhibition of spermine-enhanced [3H]MK-801 binding came to 6.1 µM.

Regarding Ser3-Con-G (peptide), the % Inh, spermine-enhanced [3H]MK-801 binding came to 23%; the % Sti, [3H]MK-801 binding without spermine was found to be 62%; the EC (µM), stimulation of [3H]MK-801 binding without spermine was found to be 8.4 µM; the IC (µM), inhibition of spermine-enhanced [3H]MK-801 binding came to 3.6 µM.

Turning to Ser4-Con-G (peptide), the % Inh, spermine-enhanced [3H]MK-801 binding turned out to be 0% and the % Sti, [3H]MK-801 binding without spermine worked out at 0%.

For Ser7-Con-G (peptide), the % Inh, spermine-enhanced [3H]MK-801 binding stood at 100%; the % Sti, [3H]MK-801 binding without spermine is 0%; the IC (µM), inhibition of spermine-enhanced [3H]MK-801 binding stood at 0.25 µM.

For the substance Ser10-Con-G (peptide), the % Inh, spermine-enhanced [3H]MK-801 binding is 100%; the % Sti, [3H]MK-801 binding without spermine turned out to be 0%; the IC (µM), inhibition of spermine-enhanced [3H]MK-801 binding turned out to be 1.8 µM.

Regarding Ser14-Con-G (peptide), the % Inh, spermine-enhanced [3H]MK-801 binding was determined as 100%; the % Sti, [3H]MK-801 binding without spermine amounted to 0%; the IC (µM), inhibition of spermine-enhanced [3H]MK-801 binding was found to be 0.16 µM.

With Ser(p)3-Con-G (peptide), the % Inh, spermine-enhanced [3H]MK-801 binding was found to be 34%; the % Sti, [3H]MK-801 binding without spermine amounted to 68%; the EC (µM), stimulation of [3H]MK-801 binding without spermine worked out at 3.5 µM; the IC (µM), inhibition of spermine-enhanced [3H]MK-801 binding was 0.9 µM.

As to Ser(p)4-Con-G (peptide), the % Inh, spermine-enhanced [3H]MK-801 binding turned out to be 0% and the % Sti, [3H]MK-801 binding without spermine is 0%.

Ser(p)7-Con-G (peptide): the % Inh, spermine-enhanced [3H]MK-801 binding amounted to 50%; the % Sti, [3H]MK-801 binding without spermine stood at 0%; the IC (µM), inhibition of spermine-enhanced [3H]MK-801 binding was 1.04 µM.

Consider Ser(p)10-Con-G (peptide), for which the % Inh, spermine-enhanced [3H]MK-801 binding is 100%; the % Sti, [3H]MK-801 binding without spermine was found to be 0%; the IC (µM), inhibition of spermine-enhanced [3H]MK-801 binding worked out at 0.56 µM.

Consider Ser(p)14-Con-G (peptide), for which the % Inh, spermine-enhanced [3H]MK-801 binding was 31%; the % Sti, [3H]MK-801 binding without spermine stood at 0%; the IC (µM), inhibition of spermine-enhanced [3H]MK-801 binding is 1.12 µM.

Regarding Ser^o-Con-G (peptide), the % Inh, spermine-enhanced [3H]MK-801 binding was found to be 41%; the % Sti, [3H]MK-801 binding without spermine amounted to 0%; the IC (µM), inhibition of spermine-enhanced [3H]MK-801 binding turned out to be 6.8 µM.

Consider Tyr3-Con-G (peptide), for which the % Inh, spermine-enhanced [3H]MK-801 binding amounted to 0% and the % Sti, [3H]MK-801 binding without spermine turned out to be 0%.

For Tyr7-Con-G (peptide), the % Inh, spermine-enhanced [3H]MK-801 binding was 100%; the % Sti, [3H]MK-801 binding without spermine is 0%; the IC (µM), inhibition of spermine-enhanced [3H]MK-801 binding amounted to 0.5 µM.

On to Tyr(oMe)^o-Con-G (peptide), for which the % Inh, spermine-enhanced [3H]MK-801 binding stood at 0% and the % Sti, [3H]MK-801 binding without spermine is 0%.

Tyr(p)^o-Con-G (peptide): the % Inh, spermine-enhanced [3H]MK-801 binding turned out to be 0% and the % Sti, [3H]MK-801 binding without spermine worked out at 0%.

Consider Tyr^o-Con-G (peptide), for which the % Inh, spermine-enhanced [3H]MK-801 binding was determined as 0% and the % Sti, [3H]MK-801 binding without spermine was 0%.

As for Tyr^o-Glu3,4,7,10,14-Con-G (peptide), the % Inh, spermine-enhanced [3H]MK-801 binding amounted to 0%; the % Sti, [3H]MK-801 binding without spermine stood at 31%; the EC (µM), stimulation of [3H]MK-801 binding without spermine worked out at 2.7 µM.

As for di-iodo-Tyr7-Con-G (peptide), the % Inh, spermine-enhanced [3H]MK-801 binding is 100%; the % Sti, [3H]MK-801 binding without spermine came out at 0%; the IC (µM), inhibition of spermine-enhanced [3H]MK-801 binding was 0.5 µM.

Consider iodo-Tyr7-Con-G (peptide), for which the % Inh, spermine-enhanced [3H]MK-801 binding is 100%; the % Sti, [3H]MK-801 binding without spermine was found to be 0%; the IC (µM), inhibition of spermine-enhanced [3H]MK-801 binding is 0.5 µM.

As for tBu-Tyr^o-Con-G (peptide), the % Inh, spermine-enhanced [3H]MK-801 binding came out at 29%; the % Sti, [3H]MK-801 binding without spermine stood at 69%; the EC (µM), stimulation of [3H]MK-801 binding without spermine came to 1 µM; the IC (µM), inhibition of spermine-enhanced [3H]MK-801 binding came to 1.5 µM.
